Measurements published in patent publication US20240132578A1 (published 2024).

B1: 1443_C16 (PG16) (TCN-116) (antibody, V domains shown)
VH: QEQLVESGGGVVQPGGSLRLSCLASGFTFHKYGMHWVRQAPGKGLEWVALISDDGMRKYHSDSMWGRVTISRDNSKNTLYLQFSSLKVEDTAMFFCAREAGGPIWHDDVKYYDFNDGYYNYHYMDVWGKGTTVTVSS
VL: QSALTQPASVSGSPGQTITISCNGTSSDVGGFDSVSWYQQSPGKAPKVMVFDVSHRPSGISNRFSGSKSGNTASLTISGLHIEDEGDYFCSSLTDRSHRIFGGGTKVTVLG
B2: 1443_C16 (PG16) (TCN-116) (antibody, V domains shown)
VH: B1 VH
VL: B1 VL
B3: 1496_C09 (PG9) (TCN-109) (antibody, V domains shown)
VH: QRLVESGGGVVQPGSSLRLSCAASGFDFSRQGMHWVRQAPGQGLEWVAFIKYDGSEKYHADSVWGRLSISRDNSKDTLYLQMNSLRVEDTATYFCVREAGGPDYRNGYNYYDFYDGYYNYHYMDVWGKGTTVTVSS
VL: QSALTQPASVSGSPGQSITISCNGTSNDVGGYESVSWYQQHPGKAPKVVIYDVSKRPSGVSNRFSGSKSGNTASLTISGLQAEDEGDYYCKSLTSTRRRVFGTGTKLTVLG

Experiments:
[1] = biological target: HIV-1 93UG077 Env (clade A pseudovirus) (HIV-1); test: cell-based or functional assay
[2] = biological target: HIV-1 92BR020 Env (clade B pseudovirus) (HIV-1); test: cell-based or functional assay
[3] = biological target: HIV-1 APV-13 Env (clade B pseudovirus) (HIV-1); test: cell-based or functional assay
[4] = biological target: HIV-1 JRCSF Env (clade B pseudovirus) (HIV-1, UniProt P20871 32-848); test: cell-based or functional assay
[5] = biological target: HIV-1 APV-17 Env (clade B pseudovirus) (HIV-1); test: cell-based or functional assay
[6] = biological target: HIV-1 APV-6 Env (clade B pseudovirus) (HIV-1); test: cell-based or functional assay
[7] = biological target: HIV-1 93IN905 Env (clade C pseudovirus) (HIV-1); test: cell-based or functional assay
[8] = biological target: HIV-1 IAVI-C18 Env (clade C pseudovirus) (HIV-1); test: cell-based or functional assay
[9] = biological target: HIV-1 IAVI-C22 Env (clade C pseudovirus) (HIV-1); test: cell-based or functional assay
[10] = biological target: HIV-1 IAVI-C3 Env (clade C pseudovirus) (HIV-1); test: cell-based or functional assay
[11] = biological target: HIV-1 92UG024 Env (clade D pseudovirus) (HIV-1); test: cell-based or functional assay
[12] = biological target: HIV-1 92UG005 Env (clade D pseudovirus) (HIV-1); test: cell-based or functional assay
[13] = biological target: HIV-1 92TH021 Env (CRF01_AE pseudovirus) (HIV-1); test: cell-based or functional assay
[14] = biological target: HIV-1 CMU02 Env (CRF01_AE pseudovirus) (HIV-1); test: cell-based or functional assay
[15] = biological target: aMLV envelope (negative control pseudovirus); test: cell-based or functional assay
[16] = biological target: HIV-1 94UG103 Env (clade A pseudovirus) (HIV-1); test: cell-based or functional assay
[17] = biological target: HIV-1 92RW020 Env (clade A pseudovirus) (HIV-1); test: cell-based or functional assay
recombinant gp41 HxB2 = biological target: T1, recombinant gp41 HxB2 (HIV-1, UniProt P04578 541-682); test: screening ELISA on recombinant gp41 (column mAb Specificity)
T1 construct: domain: gp41

[18] = biological target: T2, recombinant, monomeric gp120 JR-CSF (HIV-1, UniProt P20871 32-503); test: screening ELISA on recombinant gp120 (column mAb Specificity)
T2 construct: domain: gp120; also called JR-CSF gp120

[19] = biological target: T3, HIV-1 YU2 gp160 expressed on the cell surface (HIV-1 strain YU2, UniProt P35961 32-843); test: flow cytometry on transfected cells (FIG. 8)
T3 construct: whole, on cells

[20] = biological target: T4, V1/V2 deleted HIV-1JR-CSF Env expressed on transfected cells (HIV-1 strain JR-CSF, UniProt P20871 32-848); test: flow cytometry on transfected 293T cells (FIG. 13E)
T4 construct: whole, on cells; also called variable loop deleted HIV-1JR-CSF variant (V1/V2)

[21] = biological target: T5, V3 deleted HIV-1JR-CSF Env expressed on transfected cells (HIV-1 strain JR-CSF, UniProt P20871 32-848); test: as above
T5 construct: whole, on cells; also called variable loop deleted HIV-1JR-CSF variant (V3)

[22] = biological target: T6, recombinant, monomeric gp120JR-CSF (HIV-1 isolate JR-CSF, UniProt P20871 32-503); test: ELISA, initial screen of B cell culture supernatants
T6 construct: domain: gp120; also called JR-CSF gp120; JR-CSFgp120

recombinant gp41HxB2 = biological target: T7, recombinant gp41HxB2 (HIV-1 clone HxB2, UniProt P04578 541-682); test: as above
T7 construct: domain: gp41

Row | Binder | IC50 (µg/mL), pseudovirus neutralization [1] [µg/mL] | IC50 (µg/mL), pseudovirus neutralization [2] [µg/mL] | IC50 (µg/mL), pseudovirus neutralization [3] [µg/mL] | IC50 (µg/mL), pseudovirus neutralization [4] [µg/mL] | IC50 (µg/mL), pseudovirus neutralization [5] [µg/mL] | IC50 (µg/mL), pseudovirus neutralization [6] [µg/mL] | IC50 (µg/mL), pseudovirus neutralization [8] [µg/mL] | IC50 (µg/mL), pseudovirus neutralization [10] [µg/mL] | IC50 (µg/mL), pseudovirus neutralization [12] [µg/mL] | IC50 (µg/mL), pseudovirus neutralization [14] [µg/mL] | IC50 (µg/mL), pseudovirus neutralization [15] [µg/mL] | IC50 (µg/mL), pseudovirus neutralization [16] [µg/mL] | IC50 (µg/mL), pseudovirus neutralization [17] [µg/mL] | binding result (recombinant gp41 HxB2) | other results
1 | B1 | > 50 | > 50 | > 50 | < 0.0025 | > 50 | 0.08 | 0.007 | 14.8 | > 50 | > 50 | > 50 | 0.008 | 0.004 | no binding | IC50 (µg/mL), pseudovirus neutralization [7]: 0.1 µg/mL; IC50 (µg/mL), pseudovirus neutralization [9]: 0.069 µg/mL; IC50 (µg/mL), pseudovirus neutralization [11]: > 50 µg/mL; IC50 (µg/mL), pseudovirus neutralization [13]: 0.13 µg/mL; binding result [18]: no binding
2 | B2 |  |  |  |  |  |  |  |  |  |  |  |  |  |  | binding result [19]: binds; binding result [20]: no binding; binding result [21]: no binding; binding result [22]: no binding; binding result (recombinant gp41HxB2): no binding
3 | B3 | > 50 | > 50 | > 50 | < 0.0025 | 26.4 | 0.09 | 0.05 | 12.9 | > 50 | > 50 | > 50 | 0.17 | 0.06 | no binding | 
